Reference: patent US20070202098A1

target: His-tagged V158 FcγRIIIa (human) (UniProt P08637); assay: SPR
Sequence (P08637 17-208 F176V): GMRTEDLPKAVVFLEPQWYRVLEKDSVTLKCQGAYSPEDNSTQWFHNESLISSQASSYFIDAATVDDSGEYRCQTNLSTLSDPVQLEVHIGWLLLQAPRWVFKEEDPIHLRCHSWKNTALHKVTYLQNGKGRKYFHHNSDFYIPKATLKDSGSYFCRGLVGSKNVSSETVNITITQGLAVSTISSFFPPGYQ

Row | Substance | Fold (Kd, over WT)
1 | alemtuzumab Fc variant 30 V264I/I332E (antibody) | 4 fold

target: extracellular region of human F158 FcγRIIIa, GST-tagged (human) (UniProt P08637); assay: SPR
Sequence (P08637 17-208): as the sequence (P08637 17-208 F176V) above, with V160F counted along it

Row | Substance | Fold (Kd, over WT) | Kd
2 | alemtuzumab Fc variant 30 V264I/I332E (antibody) | 14 fold | 52 nM

target: FcγRIIIa on human PBMC effector cells (heterozygous V158/F158 or allotype not stated) (human) (UniProt P08637); assay: cell-based or functional assay
Sequence (P08637 17-254): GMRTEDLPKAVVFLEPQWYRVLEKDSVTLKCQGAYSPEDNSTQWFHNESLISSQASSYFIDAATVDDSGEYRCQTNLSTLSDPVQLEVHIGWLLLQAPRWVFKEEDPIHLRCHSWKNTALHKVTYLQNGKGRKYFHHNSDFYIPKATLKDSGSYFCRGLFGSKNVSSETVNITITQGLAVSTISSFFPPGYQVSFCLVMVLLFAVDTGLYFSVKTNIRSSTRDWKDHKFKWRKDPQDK

Row | Substance | ADCC EC50, DoHH-2 targets, human PBMCs | ADCC Fold Improvement Over WT | ADCC log(EC50), DoHH-2 targets, human PBMCs
3 | alemtuzumab Fc variant 30 V264I/I332E (antibody) | 4 ng/mL | 2.5 fold | 0.6 log(ng/ml)
4 | alemtuzumab Fc variant 90 S239D/I332E (antibody) | 3 ng/mL | 3.3 fold | 0.49 log(ng/ml)

target: His-tagged V158 FcγRIIIa (human) (UniProt P08637); assay: SPR, receptor immobilized, antibody flowed

Row | Substance | Kd
5 | alemtuzumab Fc variant 35 S298A (antibody) | 52 nM
6 | alemtuzumab Fc variant 30 V264I/I332E (antibody) | 17 nM
7 | alemtuzumab Fc variant 22 I332E (antibody) | 31 nM
8 | alemtuzumab Fc variant 3 V264I (antibody) | 64 nM
9 | alemtuzumab Fc variant 37 S298A/E333A/K334A (antibody) | 39 nM

target: extracellular region of human F158 FcγRIIIa, GST-tagged (human) (UniProt P08637); assay: AlphaScreen competition

Row | Substance | Fold (IC50, over WT) | IC50
10 | alemtuzumab Fc variant 30 V264I/I332E (antibody) | 15.6 fold | 1.1 nM

target: extracellular region of human V158 FcγRIIIa fused with glutathione S-Transferase (GST) (human) (UniProt P08637); assay: AlphaScreen competition
Sequence (P08637 17-208 F176V): as the sequence (P08637 17-208 F176V) above

Row | Substance | FcγRIIIa Fold | Fold (IC50, over WT) | IC50
11 | trastuzumab Fc variant 222 E233D (antibody) | 0.85 fold | – | –
12 | trastuzumab Fc variant 257 E318R (antibody) | 1.06 fold | – | –
13 | alemtuzumab Fc variant 30 V264I/I332E (antibody) | 12.5 fold | 12.8 fold | 0.5 nM
14 | trastuzumab Fc variant 244 K274Y (antibody) | 1.06 fold | – | –
15 | trastuzumab Fc variant 288 T335D (antibody) | 2.79 fold | – | –
16 | trastuzumab Fc variant 242 K274R (antibody) | 1.41 fold | – | –
17 | trastuzumab Fc variant 224 P230A/E233D/I332E (antibody) | 1.87 fold | – | –
18 | trastuzumab Fc variant 250 N276Y (antibody) | 0.56 fold | – | –
19 | trastuzumab Fc variant 238 E272Y (antibody) | 8.7 fold | – | –
20 | trastuzumab Fc variant 241 K274E (antibody) | 6.11 fold | – | –
21 | trastuzumab Fc variant 294 S239D/A330Y/I332E/L235D (antibody) | 7.04 fold | – | –
22 | trastuzumab Fc variant 221 P230A (antibody) | 1.09 fold | – | –
23 | trastuzumab Fc variant 239 V273I (antibody) | 0.79 fold | – | –
24 | trastuzumab Fc variant 281 E333T (antibody) | 0.78 fold | – | –
25 | trastuzumab Fc variant 272 K326I (antibody) | 1.43 fold | – | –
26 | trastuzumab Fc variant 246 N276S (antibody) | 0.41 fold | – | –
27 | trastuzumab Fc variant 282 E333H (antibody) | 0.75 fold | – | –
28 | trastuzumab Fc variant 219 S239D/I332E/A330I (antibody) | 59.1 fold | – | –
29 | trastuzumab Fc variant 292 V240I/V266I (antibody) | 1.72 fold | – | –
30 | trastuzumab Fc variant 248 N276R (antibody) | 0.66 fold | – | –
31 | trastuzumab Fc variant 291 L234I/L235D (antibody) | 0.07 fold | – | –
32 | trastuzumab Fc variant 254 Y278W (antibody) | 0.41 fold | – | –

Row | Substance | FcγRIIIa Fold | Fold (IC50, over WT) | IC50
33 | trastuzumab Fc variant 256 V302I (antibody) | 1.01 fold | – | –
34 | trastuzumab Fc variant 296 S239D/A330Y/I332E/V264T (antibody) | 17.7 fold | – | –
35 | trastuzumab Fc variant 268 S324V (antibody) | 1.17 fold | – | –
36 | trastuzumab Fc variant 298 S239D/A330Y/I332E/K326E (antibody) | 64.1 fold | – | –
37 | trastuzumab Fc variant 273 K326T (antibody) | 1.88 fold | – | –
38 | trastuzumab Fc variant 240 K274T (antibody) | 1.41 fold | – | –
39 | trastuzumab Fc variant 270 S324Y (antibody) | 0.98 fold | – | –
40 | trastuzumab Fc variant 290 T335Y (antibody) | 1.56 fold | – | –
41 | trastuzumab Fc variant 255 E283R (antibody) | 0.67 fold | – | –
42 | trastuzumab Fc variant 251 Y278T (antibody) | 1.87 fold | – | –
43 | trastuzumab Fc variant 295 S239D/A330Y/I332E/V240I (antibody) | 28 fold | – | –
44 | trastuzumab Fc variant 263 V323I (antibody) | 0.83 fold | – | –
45 | trastuzumab Fc variant 266 S324R (antibody) | 0.71 fold | – | –
46 | trastuzumab Fc variant 252 Y278E (antibody) | 0.9 fold | – | –
47 | trastuzumab Fc variant 223 P230A/E233D (antibody) | 0.92 fold | – | –
48 | trastuzumab Fc variant 293 S239D/A330Y/I332E/L234I (antibody) | 22.4 fold | – | –
49 | trastuzumab Fc variant 245 F275W (antibody) | 1.11 fold | – | –
50 | trastuzumab Fc variant 247 N276E (antibody) | 0.87 fold | – | –
51 | trastuzumab Fc variant 267 S324I (antibody) | 1.15 fold | – | –
52 | trastuzumab Fc variant 289 T335R (antibody) | 2.58 fold | – | –
53 | trastuzumab Fc variant 243 K274L (antibody) | 1.09 fold | – | –
54 | alemtuzumab Fc variant 90 S239D/I332E (antibody) | 56.1 fold | – | –
